PMC3764172

Target: T1, PGN_0753 (HaeR) response regulator, His6-tagged (Porphyromonas gingivalis ATCC 33277) (UniProt B2RIS7)
T1 sequence: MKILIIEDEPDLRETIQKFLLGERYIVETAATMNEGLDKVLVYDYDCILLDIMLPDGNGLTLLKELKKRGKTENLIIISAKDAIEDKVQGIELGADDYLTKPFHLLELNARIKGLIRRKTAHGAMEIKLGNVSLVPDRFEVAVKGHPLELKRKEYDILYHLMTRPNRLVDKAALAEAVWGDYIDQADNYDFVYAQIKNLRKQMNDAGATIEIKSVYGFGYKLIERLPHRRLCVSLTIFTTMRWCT
Assay: EMSA

Sequence | binding
CGTATCCGGGTTATACGATCTGTCGTTTGGATATTGAAAATCATTTCTATCGGAACTATACGCTCCATATCGGTGCGGAGAACCTGTTCGATTATAAACCCAAAGCATTGGCATTCAATTCCCCGACATCACCCGGACGTATCATATACGGGTTGGTTCGGATCACTTTCTAATACGACTTATTTGCAACAGAAATATAATTCGCCACG (double strand) [hmuS upstream region] | binds
CCCTTGTCGCTTATATTGAAAACATGTTCTTTATAATCCGATACTCTTCTTAAATCGAATTTTTTCTCTAAATTGCGCCGCAACAAAACTCCTTGAGAAAAGTACCAATAGAAATAGAAGGTAGCATTTTGCCTTTAAATTCCTTTTCTTTTCTTGGATTGTTCTTGAAATGAATCTTATTTGTGGATCTTTTTTGTTTTTTTAACCCGGCCGTGGTTCTCTGAATCACGACCATAAATTGTTTTAAAGT (double strand) [kgp (PGN_1728) promoter] | binds
CATTTTGATGAAATTAGAATATGATTTTACTGTGTAGTACCCCTTCTGTATTTATGCATTATAAAGTCTTCTTGGGAGACAAAATTCACATAGAAACCGAAAGAAATACCACAATCGCAAATATATGCACTTTTCCTTTAAACGCGAATCAAAATATGCATAATATATTGCCCAAAAGCTGTCATTCGGATTGATTGATGGCCTCATATTGGGTTTGCA (double strand) [rgpA (PGN_1970) promoter] | binds
TAGCGTCATTCTTTTCATAGACTTTTCTTTTGCGTTAAACTTAAAATTATTACTGTTATGTTGTTTTCTTTTCTTCTCCGGTTTTACCCTAACCAAGGGAAGTCTCAAAAAGCCGCTACCGGCGTTAGACACAAGTCACGAAACTTCCACAACTGTCCTATGATACGGACAGCCACAAAACTAAATAAAAAAATGCAACCAGACTAATCCTATTATCC (double strand) [ragA (PGN_0293) promoter] | binds
TAAGTGATTGAAAGACTTCGTTTGCTGAGATTCGAGCAAATCGTCTTGGGACAAAGATATAAAAAAGTGCCACCGAATTTGCACCTCGTCCCCAAAACACAGGCGTAAAATATCCGCACATCCCGGGACTGCAAAGGGAGAGCATGCTATTTCAGGAAAAATTCAGTTTTACCATGTTATATTTGTAAAAGAAGATCAATCCAAACAGGGCTATCCAGATG (double strand) [haeR (PGN_0753) promoter] | binds
